According to publication PMC10496494:

Key:
[1] = molecular target: NPM1 (human wildtype nucleophosmin, residues 1 to 290) (human) (UniProt P06748); test: SPR; Biacore T200; NPM1 immobilised on CM5 chip by amine coupling, DDX24 injected in a concentration series; PBS with 0.05% Tween-20 and 1% DMSO, pH 7.4, 25 °C; Langmuir 1:1 binding model
[2] = molecular target: DDX24^E271K (DDX24 with the p.Glu271Lys mutation of MOVLD patients) (human) (UniProt Q9GZR7); test: SPR; Biacore T200; DDX24 immobilised on CM5 chip by amine coupling, NPM1 injected in a concentration series; PBS with 0.05% Tween-20 and 1% DMSO, pH 7.4, 25 °C; Langmuir 1:1 binding model

Chain of NPM1 (human wildtype nucleophosmin, residues 1 to 290) (human) (P06748 1-290): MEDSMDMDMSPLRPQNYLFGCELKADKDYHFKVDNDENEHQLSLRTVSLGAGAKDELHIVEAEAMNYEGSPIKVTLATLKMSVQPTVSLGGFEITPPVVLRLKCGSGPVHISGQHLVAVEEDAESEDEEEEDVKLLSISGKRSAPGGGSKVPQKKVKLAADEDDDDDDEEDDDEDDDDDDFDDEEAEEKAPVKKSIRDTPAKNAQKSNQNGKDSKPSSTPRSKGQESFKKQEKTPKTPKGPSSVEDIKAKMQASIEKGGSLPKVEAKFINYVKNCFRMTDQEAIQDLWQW
Chain of NPM1 (human wildtype nucleophosmin, residues 1 to 290) (P06748 1-290): as above

Kd [1]	koff [1]	kon [1]	Kd [2]	koff [2]	kon [2]	Substance
5.5 nM	0.00316 s⁻¹	575000 M⁻¹ s⁻¹	–	–	–	DDX24^E271K (DDX24 with the p.Glu271Lys mutation of MOVLD patients) (from UniProt Q9GZR7 28-859) (enzyme)
–	–	–	2.92 nM	0.00165 s⁻¹	564000 M⁻¹ s⁻¹	NPM1 (human wildtype nucleophosmin, residues 1 to 290) (from UniProt P06748 1-290) (natural protein)
